# Laboratory results from patent US20200030378A1.
# B1: w830 clonotype 3 TCR (TCR)
# TCR alpha: CAYPSTDKLIF
# TCR beta: CASSILGASNQPQHF
# B2: w876 clonotype 8 TCR (TCR)
# TCR alpha: CVVYASKIIF
# TCR beta: CASSDTPDLNTEAFF
# B3: w876 clonotype 13 TCR (TCR)
# TCR alpha: CVVTDTSGGGADGLTF
# TCR beta: CASSLAGLAGTDTQYF
# B4: w876 clonotype 14 TCR (TCR)
# TCR alpha: CVVPSAGKSTF
# TCR beta: CASSEFAGQETQYF
# Biological target: MCPyV KLL epitope presented by HLA-A*02:01 on cells (human; Merkel cell polyomavirus), A*02:0
# Assay: cell-based or functional assay
row,Binder,"EC50 (ng/uL DNA), IFN-γ secretion, COS-7 + HLA-A*02:01 + tLTAg plasmid [ng/µL DNA]"
1,B1,270
2,B2,4.2
3,B3,3.9
4,B4,5.4
